Laboratory results as given in PMC10786891, “Massively parallel profiling of RNA-targeting CRISPR-Cas13d”.
Changes are numbered by the printed parent chain.

T1: EsCas13d, nuclease-dead (Eubacterium siraeum, UniProt B0MS50, R295A;H300A;R849A;H854A)
T1 sequence: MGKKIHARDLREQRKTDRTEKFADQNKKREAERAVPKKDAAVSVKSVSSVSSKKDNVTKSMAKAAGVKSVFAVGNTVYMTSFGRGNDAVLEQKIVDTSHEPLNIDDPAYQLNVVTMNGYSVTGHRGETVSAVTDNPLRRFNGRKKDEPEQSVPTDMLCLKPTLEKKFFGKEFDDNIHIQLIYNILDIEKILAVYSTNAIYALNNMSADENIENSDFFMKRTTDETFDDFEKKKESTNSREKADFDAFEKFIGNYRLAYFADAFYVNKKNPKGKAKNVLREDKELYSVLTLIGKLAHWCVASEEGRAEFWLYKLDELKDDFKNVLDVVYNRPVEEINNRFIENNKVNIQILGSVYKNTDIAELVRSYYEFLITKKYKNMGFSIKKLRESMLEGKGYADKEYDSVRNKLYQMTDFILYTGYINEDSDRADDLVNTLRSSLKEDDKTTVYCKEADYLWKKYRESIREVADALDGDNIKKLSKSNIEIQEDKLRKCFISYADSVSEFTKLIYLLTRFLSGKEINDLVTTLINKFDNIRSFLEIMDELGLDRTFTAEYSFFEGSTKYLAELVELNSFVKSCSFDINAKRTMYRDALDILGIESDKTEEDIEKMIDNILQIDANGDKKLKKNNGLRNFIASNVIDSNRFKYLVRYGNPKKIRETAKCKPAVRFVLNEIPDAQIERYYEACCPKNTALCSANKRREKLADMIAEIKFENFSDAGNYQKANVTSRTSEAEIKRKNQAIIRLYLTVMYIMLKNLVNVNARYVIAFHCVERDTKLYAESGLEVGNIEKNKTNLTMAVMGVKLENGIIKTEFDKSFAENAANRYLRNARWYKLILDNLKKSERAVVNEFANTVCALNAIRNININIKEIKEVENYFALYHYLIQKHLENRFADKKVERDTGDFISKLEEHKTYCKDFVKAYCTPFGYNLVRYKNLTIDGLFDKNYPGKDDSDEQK

B1: target 1 MT 5'PFS UAG 3'PFS UUU (mixed)
RNA 1: CACCCGUGCAAAAAUGCAGGGGUCUAAAACUGAGCGGAUAACCUCUCUAUGG
RNA 2: GGGAAUGGAUCCACAUCUACGAAUUCUAGCCAUAGAGAGGUUAUCCGCUCAUUUAGAUCGGAAGAGCACACGU
B2: target 1 MT 5'PFS CAC 3'PFS CUG (mixed)
RNA 1: B1 RNA 1
RNA 2: B1 RNA 2 with U27C, G29C, U52C, U54G
B3: target 1 insA 3' of 8,insC 3' of 1 (mixed)
RNA 1: B1 RNA 1
RNA 2: GGGAAUGGAUCCACAUCUACGAAUUCGUACCAUAGAGAGGUUAUACCGCUCACCCGAGAUCGGAAGAGCACACGU
B4: target 1 MT 5'PFS GGG 3'PFS AUU (mixed)
RNA 1: B1 RNA 1
RNA 2: B1 RNA 2 with U27G, A28G, U52A
B5: target 1 MT 5'PFS GUC 3'PFS ACC (mixed)
RNA 1: B1 RNA 1
RNA 2: B1 RNA 2 with U27G, A28U, G29C, U52A, U53C, U54C
B6: target 1 MT 5'PFS AAG 3'PFS UCU (mixed)
RNA 1: B1 RNA 1
RNA 2: B1 RNA 2 with U27A, U53C
B7: target 1 MT 5'PFS GCG 3'PFS UGU (mixed)
RNA 1: B1 RNA 1
RNA 2: B1 RNA 2 with U27G, A28C, U53G
B8: target 1 MT 5'PFS GCA 3'PFS GGA (mixed)
RNA 1: B1 RNA 1
RNA 2: B1 RNA 2 with U27G, A28C, G29A, U52G, U53G, U54A
B9: target 1 MT 5'PFS GAA 3'PFS ACU (mixed)
RNA 1: B1 RNA 1
RNA 2: B1 RNA 2 with U27G, G29A, U52A, U53C
B10: target 1 MT 5'PFS GGG 3'PFS AUA (mixed)
RNA 1: B1 RNA 1
RNA 2: B1 RNA 2 with U27G, A28G, U52A, U54A
B11: target 1 MT 5'PFS GGA 3'PFS CGA (mixed)
RNA 1: B1 RNA 1
RNA 2: B1 RNA 2 with U27G, A28G, G29A, U52C, U53G, U54A
B12: target 1 MT 5'PFS GUG 3'PFS GCA (mixed)
RNA 1: B1 RNA 1
RNA 2: B1 RNA 2 with U27G, A28U, U52G, U53C, U54A
B13: target 1 MT 5'PFS AAU 3'PFS CAU (mixed)
RNA 1: B1 RNA 1
RNA 2: B1 RNA 2 with U27A, G29U, U52C, U53A
B14: target 1 MT 5'PFS UGC 3'PFS AAC (mixed)
RNA 1: B1 RNA 1
RNA 2: B1 RNA 2 with A28G, G29C, U52A, U53A, U54C
B15: target 1 MT 5'PFS UAA 3'PFS CCG (mixed)
RNA 1: B1 RNA 1
RNA 2: B1 RNA 2 with G29A, U52C, U53C, U54G
B16: target 1 MT 5'PFS CAC 3'PFS CUA (mixed)
RNA 1: B1 RNA 1
RNA 2: B1 RNA 2 with U27C, G29C, U52C, U54A
B17: target 1 MT 5'PFS GAA 3'PFS ACC (mixed)
RNA 1: B1 RNA 1
RNA 2: B1 RNA 2 with U27G, G29A, U52A, U53C, U54C
B18: target 1 MT 5'PFS UCC 3'PFS CUC (mixed)
RNA 1: B1 RNA 1
RNA 2: B1 RNA 2 with A28C, G29C, U52C, U54C
B19: target 1 MT 5'PFS GGC 3'PFS UUU (mixed)
RNA 1: B1 RNA 1
RNA 2: B1 RNA 2 with U27G, A28G, G29C
B20: target 1 insA 3' of 8,insA 3' of 2 (mixed)
RNA 1: B1 RNA 1
RNA 2: B3 RNA 2 with C53A
B21: target 1 MT 5'PFS CUG 3'PFS CAC (mixed)
RNA 1: B1 RNA 1
RNA 2: B1 RNA 2 with U27C, A28U, U52C, U53A, U54C
B22: target 1 MT 5'PFS GAA 3'PFS ACG (mixed)
RNA 1: B1 RNA 1
RNA 2: B1 RNA 2 with U27G, G29A, U52A, U53C, U54G
B23: target 1 MT 5'PFS GGA 3'PFS CGC (mixed)
RNA 1: B1 RNA 1
RNA 2: B1 RNA 2 with U27G, A28G, G29A, U52C, U53G, U54C
B24: target 1 insU 3' of 22,insA 3' of 5 (mixed)
RNA 1: B1 RNA 1
RNA 2: GGGAAUGGAUCCACAUCUACGAAUUCGUACUCAUAGAGAGGUUAUCCGACUCACCGAGAUCGGAAGAGCACACGU
B25: target 1 MT 5'PFS GGG 3'PFS AUG (mixed)
RNA 1: B1 RNA 1
RNA 2: B1 RNA 2 with U27G, A28G, U52A, U54G
B26: target 1 MT 5'PFS GUG 3'PFS GCU (mixed)
RNA 1: B1 RNA 1
RNA 2: B1 RNA 2 with U27G, A28U, U52G, U53C
B27: target 1 MT 5'PFS GGG 3'PFS AUC (mixed)
RNA 1: B1 RNA 1
RNA 2: B1 RNA 2 with U27G, A28G, U52A, U54C
B28: target 1 MT 5'PFS UCC 3'PFS CUG (mixed)
RNA 1: B1 RNA 1
RNA 2: B1 RNA 2 with A28C, G29C, U52C, U54G
B29: target 1 MT 5'PFS GGC 3'PFS UUG (mixed)
RNA 1: B1 RNA 1
RNA 2: B1 RNA 2 with U27G, A28G, G29C, U54G
B30: target 1 MT 5'PFS UAU 3'PFS UGC (mixed)
RNA 1: B1 RNA 1
RNA 2: B1 RNA 2 with G29U, U53G, U54C
B31: target 1 MT 5'PFS UGC 3'PFS AAA (mixed)
RNA 1: B1 RNA 1
RNA 2: B1 RNA 2 with A28G, G29C, U52A, U53A, U54A
B32: target 1 MT 5'PFS CUU 3'PFS CAG (mixed)
RNA 1: B1 RNA 1
RNA 2: B1 RNA 2 with U27C, A28U, G29U, U52C, U53A, U54G
B33: target 1 MT 5'PFS GUC 3'PFS ACG (mixed)
RNA 1: B1 RNA 1
RNA 2: B1 RNA 2 with U27G, A28U, G29C, U52A, U53C, U54G

Molecular target: T1, EsCas13d, nuclease-dead
Test: crRNA (strand 1, pre-loaded); Mg2+; 40 mM Tris-HCl pH 7.5, 150 mM NaCl, 6 mM MgCl2, 1 mM DTT, 0.1% Tween-20, 0.2 mg/ml BSA; 25 C; 10 min per concentration, then washed
Settings: tags: His6-TwinStrep-SUMO cleaved; N-terminal SNAP kept (SNAP-Surface 488); label: 3' end held by stalled T7 RNA polymerase

Binder	Kd
B1	23.4 ± 3.05 nM
B2	~17 nM
B3	14.7 ± 0.7 nM
B4	17.3 ± 2.1 nM
B5	25.8 ± 4.2 nM
B6	12.1 ± 3.65 nM
B7	41.5 ± 8.5 nM
B8	80 ± 40 nM
B9	34 ± 12.5 nM
B10	32 ± 6.5 nM
B11	33.5 ± 10 nM
B12	26 ± 4 nM
B13	100 ± 45 nM
B14	~40 nM
B15	47.5 ± 15.5 nM
B16	16 ± 5 nM
B17	~80 nM

Binder	Kd
B18	~24 nM
B19	11.3 ± 1.85 nM
B20	17.9 ± 0.6 nM
B21	5.25 ± 1.6 nM
B22	~82 nM
B23	28.5 ± 11 nM
B24	18.8 ± 1.6 nM
B25	26.5 ± 4 nM
B26	7 ± 0.7 nM
B27	35.5 ± 9.5 nM
B28	14.5 ± 4.5 nM
B29	9 ± 1.2 nM
B30	~59.5 nM
B31	~50 nM
B32	74 ± 30 nM
B33	25 ± 6.6 nM
